In US20240052042A1 (Novartis, published 2024):

Assays:
[1] = biological target: T1, human Natriuretic Peptide Receptor 1 (hNPR1) (human, UniProt P16066 33-473, limits assumed); assay: Octet, FabCys
T1 construct: pannings used NPR1-hFc; also called NPR1-hFc
T1 sequence: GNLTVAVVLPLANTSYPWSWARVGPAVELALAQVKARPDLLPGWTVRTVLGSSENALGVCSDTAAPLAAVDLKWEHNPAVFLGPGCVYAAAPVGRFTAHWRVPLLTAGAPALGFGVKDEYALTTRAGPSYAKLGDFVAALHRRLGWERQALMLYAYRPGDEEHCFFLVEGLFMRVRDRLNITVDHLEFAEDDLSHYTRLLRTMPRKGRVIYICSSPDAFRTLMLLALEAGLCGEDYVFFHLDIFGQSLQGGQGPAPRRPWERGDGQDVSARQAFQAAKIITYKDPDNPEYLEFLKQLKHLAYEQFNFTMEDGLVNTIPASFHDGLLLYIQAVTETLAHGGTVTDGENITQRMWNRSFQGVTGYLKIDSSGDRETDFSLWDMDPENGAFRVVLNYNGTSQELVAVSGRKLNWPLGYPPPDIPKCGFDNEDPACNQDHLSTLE

hNPR1-ANP complex [2] = biological target: T2, hNPR1-ANP complex (human, UniProt P01160 124-151, limits assumed); assay: Octet, FabCys
T2 construct: hNPR1 antigen in the presence of ANP; also called hNPR1 + 100 nM ANP
T2 sequence: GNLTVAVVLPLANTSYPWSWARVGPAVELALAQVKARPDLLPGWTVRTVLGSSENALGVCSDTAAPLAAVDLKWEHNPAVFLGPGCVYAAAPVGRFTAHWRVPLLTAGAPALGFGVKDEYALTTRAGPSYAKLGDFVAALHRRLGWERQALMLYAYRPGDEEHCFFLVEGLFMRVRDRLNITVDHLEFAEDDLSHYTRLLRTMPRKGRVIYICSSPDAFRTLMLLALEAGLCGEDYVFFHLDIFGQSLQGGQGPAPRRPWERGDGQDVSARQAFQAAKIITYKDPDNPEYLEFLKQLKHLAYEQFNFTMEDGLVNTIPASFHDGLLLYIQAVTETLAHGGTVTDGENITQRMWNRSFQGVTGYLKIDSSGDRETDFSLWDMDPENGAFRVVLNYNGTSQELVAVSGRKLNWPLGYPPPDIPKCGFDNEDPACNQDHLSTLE
T2 sequence (peptide): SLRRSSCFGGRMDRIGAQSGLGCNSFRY

rat NPR1 (rNPR1) [3] = biological target: T3, rat NPR1 (rNPR1) (rat, UniProt P18910 29-469, limits assumed); assay: SET, FabCys
T3 construct: Soluble antigen
T3 sequence: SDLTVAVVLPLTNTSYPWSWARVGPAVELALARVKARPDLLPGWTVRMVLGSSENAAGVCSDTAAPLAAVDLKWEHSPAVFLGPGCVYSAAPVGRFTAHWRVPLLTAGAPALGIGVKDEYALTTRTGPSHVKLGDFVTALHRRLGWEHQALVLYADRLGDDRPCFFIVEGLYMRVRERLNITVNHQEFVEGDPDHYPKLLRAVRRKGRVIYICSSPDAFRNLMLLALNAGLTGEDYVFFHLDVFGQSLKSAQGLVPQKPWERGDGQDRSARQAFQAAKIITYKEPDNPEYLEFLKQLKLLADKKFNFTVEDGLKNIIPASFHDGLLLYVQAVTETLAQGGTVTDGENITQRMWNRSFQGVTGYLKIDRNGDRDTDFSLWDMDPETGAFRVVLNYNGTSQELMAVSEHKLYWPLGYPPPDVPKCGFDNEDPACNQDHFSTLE

[4] = biological target: T1, human Natriuretic Peptide Receptor 1 …; assay: SET, FabCys
rNPR1-ANP complex [5] = biological target: T4, rNPR1-ANP complex (rat, UniProt P01160 124-151 (human entry), limits assumed); assay: SET, FabCys
T4 construct: rNPR1 antigen in the presence of ANP; also called rNPR1 + 100 nM ANP
T4 sequence: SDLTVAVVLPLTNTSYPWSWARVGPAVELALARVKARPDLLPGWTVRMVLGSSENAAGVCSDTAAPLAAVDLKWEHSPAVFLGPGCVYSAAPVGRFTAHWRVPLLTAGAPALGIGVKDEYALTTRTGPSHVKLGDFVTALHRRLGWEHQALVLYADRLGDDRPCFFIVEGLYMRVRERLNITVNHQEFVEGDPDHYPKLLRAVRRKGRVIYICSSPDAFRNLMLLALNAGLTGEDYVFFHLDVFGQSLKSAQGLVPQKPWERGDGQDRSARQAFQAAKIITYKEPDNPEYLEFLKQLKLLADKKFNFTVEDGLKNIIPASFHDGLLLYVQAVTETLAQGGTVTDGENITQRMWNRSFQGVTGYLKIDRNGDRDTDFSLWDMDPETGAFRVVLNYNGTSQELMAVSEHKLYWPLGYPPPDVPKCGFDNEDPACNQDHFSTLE
T4 sequence (peptide): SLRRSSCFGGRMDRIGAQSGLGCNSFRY

hNPR1-ANP complex [6] = biological target: T2, hNPR1-ANP complex; assay: SET, FabCys
rat NPR1 (rNPR1) [7] = biological target: T3, rat NPR1 (rNPR1); assay: FabCys affinity determination
[8] = biological target: T1, human Natriuretic Peptide Receptor 1 …; assay: FabCys affinity determination
rNPR1-ANP complex [9] = biological target: T4, rNPR1-ANP complex; assay: FabCys affinity determination
hNPR1-ANP complex [10] = biological target: T2, hNPR1-ANP complex; assay: FabCys affinity determination

B1: ZZ16 (FabCys format) (Fab, V domains shown)
VH: EVQLLESGGGLVQPGGSLRLSCAASGFTFGTYAMTWVRQAPGKGLEWVSSISASGYYANYAGSVKGRFTISRDNSKNTLYLQMNSLRAEDTAVYYCARPYLGDRRSYGFDHWGQGTLVTVSS
VL: QSALTQPASVSGSPGQSITISCTGTSSDVGSYNLVSWYQQHPGKAPKLMIYEGSKRPSGVSNRFSGSKSGNTASLTISGLQAEDEADYYCSSYGFHIVVVVFGGGTKLTVL
notes: Monovalent FabCys
- Kd [1]: 140 pM
- Kd (hNPR1-ANP complex [2]): 110 pM
- Kd (rat NPR1 (rNPR1) [3]): 62000 pM
- Kd [4]: 40 pM
- Kd (rNPR1-ANP complex [5]): 51000 pM
- Kd (hNPR1-ANP complex [6]): 34 pM

B2: YY02 (FabCys format) (Fab, V domains shown)
VH: EVQLVESGGGLVKPGGSLRLSCAASGFTFSSYSMNWVRQAPGKGLEWVSSISSSSSYIYYADSVKGRFTISRDNAKNSLYLQMNSLRAEDTAVYYCARSGYRGVYGFDYWGQGTLVTVSS
VL: DIQMTQSPSSVSASVGDRVTITCRASQGISSWLAWYQQKPGKAPKLLIYAASSLQSGVPSRFSGSGSGTDFTLTISSLQPEDFATYYCQQYYHSPLTFGQGTKVEIK
notes: Monovalent FabCys
- Kd (rat NPR1 (rNPR1) [7]): 280000 pM
- Kd [8]: 45000 pM
- Kd (rNPR1-ANP complex [9]): 4400 pM
- Kd (hNPR1-ANP complex [10]): 1100 pM

B3: YY03 (FabCys format) (Fab, V domains shown)
VH: EVQLLESGGGLVQPGGSLRLSCAASGFTFSSYAISWVRQAPGKGLEWVSAISGSGGSTYYAESVKGRFTISRDNSKNTLYLQMNSLRAEDTAVYYCARESGYVYYLKFDYWGQGTLVTVSS
VL: DIQMTQSPSSLSASVGDRVTITCRASQSISSYLNWYQQKPGKAPKLLIYAASSLQSGVPSRFSGSGSGTDFTLTISSLQPEDFATYYCQQHVRVPITFGQGTKVEIK
notes: Monovalent FabCys
- Kd (rat NPR1 (rNPR1) [7]): 100 pM
- Kd (rNPR1-ANP complex [9]): 100 pM
- Kd (hNPR1-ANP complex [10]): 100 pM
